Several values for one entry are separate records, joined by “and”; a condition that tells them apart may be missing. Equal entries are not always repeated.

B1: Barstar, P11540 (parent)
chain: MKKAVINGEQIRSISDLHQTLKKELALPEYYGENLDALWDCLTGWVEYPLVLEWRQFEQSKQLTENGAESVLQVFREAKAEGCDITIILS

The variants in the data set derive from B1. Particulars: Bacillus amyloliquefaciens; pH 7.5; 25 °C; Urea; fluorescence; HEPES; KCL / MgOAc 150000 / 15000; transition: 2; structure 1BTA; whole UniProt chain shown.

As for K3A, the denaturant m value is 1.06 kcal/mol/M and 0.59 kcal/mol/M; the “denaturant midpoint (higher = more stable)” value (from here on “denaturant midpoint”) was 4.97 M and 2.52 M; the unfolding free energy was determined as 5.27 kcal/mol.
K79A: the denaturant m value is 0.89 kcal/mol/M and 0.48 kcal/mol/M; the “denaturant midpoint” value was 4.65 M and 4.24 M; the unfolding free energy was determined as 4.16 kcal/mol.
Regarding K61A, the denaturant m value was 0.96 kcal/mol/M and 0.68 kcal/mol/M; the “denaturant midpoint” value was 4.41 M and 2.51 M; the unfolding free energy was 4.25 kcal/mol.
Turning to K61A E81A, the denaturant m value is 1.16 kcal/mol/M and 0.7 kcal/mol/M; the “denaturant midpoint” value is 6.02 M and 3.72 M; the unfolding free energy was found to be 6.99 kcal/mol.

These data come from FireProtDB (doi:10.1038/s41589-020-0556-3).
